Reference: the supplement of paper PMC10567573

B1: SNX8 (parent)
chain: RMVPALPPKRMLGADREFIEARRR

Variants of: B1
Assay: protein stability index of a GFP-peptide fusion (GPS, HEK-293T) (PSI 1-6); higher = more stable
Conditions: c terminus: a fixed tail appended
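Also: lentivirally expressed fusions sorted by FACS into six bins by GFP to DsRed ratio, PSI derived from sequencing read proportions per bin multiplied by bin number.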

Protein stability index: each site, then its substitutions
A14: F 3.37; W 2.51; P 4; R 3.73; K 3.84; L 3.55; N 4.72; T 3.63; Y 2.88; H 3.71; D 4.19; E 4.34; Q 3.81; I 3.54; V 3.02; S 3.9; C 3.52; M 3.24; G 3.96
V3: R 3.94; P 3.81; Y 2.96; M 1.29; S 3.88; T 4.1; W 1.7; F 2.99; N 4.08; G 3.07; Q 3.9; C 3.5; I 2.38; A 3.31; L 1.85; K 4.11; D 4.63; E 4.49; H 3.54
P7: A 3.58; F 3.4; H 3.75; V 4.05; D 3.87; G 4.01; C 2.91; Y 3.49; E 4.35; L 3.18; M 3.52; W 3.3; Q 3.5; T 3.6; R 3.76; K 3.91; N 3.45; I 3.62; S 4.08
I19: A 4.23
K9: Q 4.73; E 4.12; Y 3.95; F 3.83; V 4.61; L 4.01; A 4.09; G 3.6; H 4.53; T 3.64; I 4.17; R 2.99; P 4.37; N 4.26; C 2.95; D 4.12; W 4.02; S 4.35; M 3.81
R1: N 2.71; I 3.21; M 2.88; P 3.83; L 1.96; H 2.3; T 2.69; Q 3.54; V 3.18; K 3.74; G 3.77; W 1.94; Y 1.81; S 3.8; F 2.22
M11: K 3.94; Q 3.6; Y 2.99; V 3.37; T 4.27; I 4.78; P 4.42; H 3.52; C 3.46; R 4.58; L 3.69; F 3.36; S 4.23; A 3.86; D 4.62; G 4.28; W 2.54; E 3.91; N 3.77
E17: I 2.64; H 3.45; L 3.37; M 2.38; T 3.55; G 3.97; R 4.1; N 4; D 3.67; K 4.19; A 3.55; S 3.87; P 4.09; Y 3.21; F 2.08; Q 3.34; V 2.81; C 3.61; W 2.19
F18: S 4.38; D 4.08; T 4.2; Q 4.46; P 4.64; A 3.56; I 3.85; G 4.57; E 4.43; M 3.78; L 3.84; Y 4.07; C 4.45; R 4.52; K 4.26; H 4.18; N 4.45; W 3.75; V 4.12
P8: Q 3.79; G 3.53; L 3.17; F 3.18; W 3.31; H 3.85; T 3.31; I 3.02; E 3.86; D 3.82; M 3.06; C 2.77; K 3.87; R 3.88; A 4.23; N 3.79; S 3.73; Y 3.88; V 3.44
R10: E 4.84; T 4.24; F 3.39; L 3.5; Y 3.71; M 4.06; D 4.61; P 4.44; I 3.94; G 4.16; Q 4.39; N 3.98; V 4.04; A 4.23; S 4.05; H 4.21; K 3.81; C 3.61
P4: Q 3.49; M 3.1; I 2.52; N 3.41; A 3.32; F 2.98; G 3.87; R 4.13; D 3.57; C 3.62; H 3.09; K 3.81; Y 3.31; V 3.58; S 3.69; L 2.28; T 3.34; W 2.77; E 3.67
A5: N 4.08; S 4.05; Q 4.1; H 3.75; F 3.24; P 3.59; T 3.81; Y 3.12; E 4.12; R 4.31; I 3.2; M 3.49; K 3.77; W 3.06; G 3.84; D 4.23; C 3.85; L 4; V 4.01
M2: T 4.08; Y 3.57; P 4.53; A 3.94; N 3.99; G 3.83; Q 4.57; E 4.52; H 4.04; L 2.76; D 4.17; W 2.14; I 3.01; S 4.46; K 4.1; V 3.58; R 3.94; C 3.22; F 3.44
D15: G 3.98; T 3.69; N 3.43; P 4.16; W 2.5; Y 2.64; A 2.77; E 3.52; L 1.52; V 2.15; H 3.22; K 3.16; M 1.56; I 1.91; S 3.77; C 2.42; F 1.99; Q 3.93
L12: I 4.08; K 3.25; F 4.12; S 4.41; D 4.54; A 4.53; Q 4.61; T 4.43; Y 3.73; R 4.19; N 4.89; V 4.42; C 3.91; H 4; W 4.05; G 4.66; M 3.95; P 4.18; E 5.11
L6: F 3.45; E 4.52; I 3.96; R 4.3; V 3.97; D 4.44; K 3.73; N 3.96; G 3.88; T 3.63; A 4; C 3.67; Y 3.39; Q 4.02; M 3.73; W 3.15; S 4.84
R16: T 3.56; H 3.67; V 3.62; P 4.33; N 4.39; M 3.55; K 3.71; S 3.91; Y 2.08; C 3.53; I 2.78; L 2.65; F 1.96; D 4.07; A 4.04; E 4.41; G 3.88; W 2.42
G13: H 3.37; Q 3.25; D 3.79; M 2.43; R 4.06; N 3.29; Y 3.13; F 2.22; V 2.54; K 3.72; A 2.81; I 2.79; L 2.69; E 3.57; C 2.17; P 2.83; S 3.54; T 3.14; W 2.17
